Here are results for one substance from publication PMC10643153.

Test [1] addresses recombinant goldfish AdipoQ (His-tagged gAdipoQ) (goldfish (Carassius auratus)). The experiment in a line: native gel or EMSA; self-association; protein electrophoresis in native gel under non-denaturing conditions, Coomassie blue staining; parallel SDS-PAGE as reference for the monomer.
For test [2] the target is unchanged. The test is described as follows: SEC-MALS; self-association; top five fractions of the SEC peak pooled, 200-µl sample on a Superose 12 10/300 GL column linked with a DynaPro NanoStar instrument; apparent MW in solution.

Values joined by “and” are separate entries in the source; they are usually repeats but may differ in a detail not shown here. Identical values can stand only once.

One may read the stoichiometry N as the number of molecules, sites or subunits per partner or assembly. With “recombinant goldfish AdipoQ (His-tagged gAdipoQ) (domain or fragment)”, the stoichiometry N was 3 and 6 in test [1]; 3 in test [2].
